1 molecule from US8734803 (IBIO, dated 2014) can be followed below.

Assay in all cases: cell-based or functional assay
Assay [1] addresses T1, neuraminidase of influenza A/Vietnam/1203/04 (H5N1, clade 1) on live virus (influenza A/Vietnam/1203/04 (H5N1), UniProt Q6DPL2 1-449).
The target of assay [2] is T1, neuraminidase of influenza …. The source holds these as a separate data set.
The target in assay [3] is NA (neuraminidase) used in the NA activity inhibition experiments of Example 9.

T1 sequence (Q6DPL2 whole entry): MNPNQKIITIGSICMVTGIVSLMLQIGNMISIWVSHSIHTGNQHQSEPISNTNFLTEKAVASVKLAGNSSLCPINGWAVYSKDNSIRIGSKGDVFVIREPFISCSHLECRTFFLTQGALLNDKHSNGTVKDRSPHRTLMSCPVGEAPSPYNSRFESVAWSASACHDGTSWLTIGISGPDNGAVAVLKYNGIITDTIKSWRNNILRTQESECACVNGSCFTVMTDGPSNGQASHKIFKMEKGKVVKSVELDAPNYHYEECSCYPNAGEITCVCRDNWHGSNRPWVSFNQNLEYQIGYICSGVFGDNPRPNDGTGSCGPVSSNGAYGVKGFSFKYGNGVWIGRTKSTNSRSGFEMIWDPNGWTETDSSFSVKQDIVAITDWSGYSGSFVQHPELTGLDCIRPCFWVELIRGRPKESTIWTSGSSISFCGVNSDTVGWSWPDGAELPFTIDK

B1: 2B9 anti-N1 neuraminidase monoclonal antibody (antibody, V domains shown)
VH: QVQLQQSGAELVRPGTSVKMSCKAAGYTFTNYWIGWVKQRPGHGLEWIGDIYPENDFSNYNEKFKDKATLTADTSSRTAYMQLSSLTSEDSAIYYCVRANEGWYLDVWGTGTTVSVSS
VL: DIQMTQSPASLSESVGETVTITCRASENIYSYLAWYQQKQGKSPQLLVYFAKTLAEGVPSTFSGSGSGTLFSLKINSLQPEDFGNYYCQHHYGTPYTFGGGTKLEIKR
Regarding B1, the “IC50 of 2B9 against various influenza strains (NA inhibition)” value in assay [1] is not above 1 µg/mL. Moreover, the “NA assay IC50 (Antibody IC50)” value in assay [2] was less than 1 µg/mL. Also, the “IC50, inhibition of NA activity” value in assay [3] amounted to 0.82 µg/mL.
